{"source": "the supplement of paper PMC9732359", "note": "± gives the uncertainty stated by the source.", "data": [{"assay": "protein stability index of a GFP-peptide fusion (yeast GPS) (PSI 1-4); higher = more stable; sorted into four equal gates, so the index is relative within each strain", "details": "doa10∆", "summary_of_the_method": "(§1)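 Yeast carrying a pooled library were grown to mid-log phase in leucine-free medium. Each library plasmid expresses Cherry and has a tiled 17-residue yeast protein peptide fused downstream of GFP. Cells were sorted into four equal gates by GFP/Cherry ratio, and plasmids from each gate were PCR-amplified, Illumina-sequenced and assigned to strains by barcode. Summing, across gates, the read frequency times the gate number gave each peptide's protein stability index.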", "values": [{"sequence": "NTEEVNRLEKEQSVKTQ [LIN1]", "protein stability index": "2.21 ± 0.2"}, {"sequence": "NTHAVLVALKRNADELS [PRE5]", "protein stability index": "2.13 ± 0.067"}, {"sequence": "NTSAIQETASPLSQDEL [YIL149C/MLP2]", "protein stability index": "1.23 ± 0.09"}, {"sequence": "NTSIAQFDIQSPLYMDT [YML103C/NUP188]", "protein stability index": "2.99 ± 0.08"}, {"sequence": "NTSLNINGWKFESLPLK [SWP82]", "protein stability index": "2.88 ± 0.055"}, {"sequence": "NTSSLQSFQNPFTASQS [YIL149C/MLP2]", "protein stability index": "2.36 ± 0.05"}, {"sequence": "NVASLVRVQFQFTGFLL [GRR1]", "protein stability index": "1.85 ± 0.072"}, {"sequence": "NVDYYNVAHRIKEDIKK [SNF2]", "protein stability index": "3.32 ± 0.065"}, {"sequence": "NVEEEQIVPYIEKLTDG [BRR2]", "protein stability index": "3.05 ± 0.061"}, {"sequence": "NVEMEEDVLVNQILMSV [RPL1A]", "protein stability index": "2.83 ± 0.13"}, {"sequence": "NVETYEQILQWVTEVLG [BRR2]", "protein stability index": "1.83 ± 0.065"}, {"sequence": "NVGLCITIYDLLTVEEG [RPC25]", "protein stability index": "1.45 ± 0.091"}, {"sequence": "NVIITGSTSLIEGMEQR [ARP7]", "protein stability index": "1.75 ± 0.06"}, {"sequence": "NVKVIMATNRADTLDPA [RPT3]", "protein stability index": "2.67 ± 0.1"}, {"sequence": "NVLFLRLFNNVKIHSQE [SRP72]", "protein stability index": "2.18 ± 0.049"}, {"sequence": "NVTLVNGKRRMNPGPSV [RPS30A]", "protein stability index": "2.37 ± 0.059"}, {"sequence": "NVVNYLSINKNFINQED [RPC17]", "protein stability index": "1.39 ± 0.071"}, {"sequence": "NWRLVEVGRVVLIKKGQ [RPL14A]", "protein stability index": "2.17 ± 0.18"}, {"sequence": "NYGSSLQWHAMIELICS [AAR2]", "protein stability index": "1.31 ± 0.13"}, {"sequence": "NYNHLLPTRYTLDVEAF [RPL27A]", "protein stability index": "1.45 ± 0.045"}, {"sequence": "NYPQDEINAVFNELCDP [POP1]", "protein stability index": "2.84 ± 0.059"}, {"sequence": "NYTDLIWFPEDFISPEL [MED1]", "protein stability index": "2.56 ± 0.058"}, {"sequence": "PAELDLRGSLLSRKPSD [RPC82]", "protein stability index": "2.9 ± 0.13"}, {"sequence": "PAFKPTEKKFTKEQYAA [RPL5]", "protein stability index": "2.93 ± 0.089"}, {"sequence": "PAKSASARGSYLRVSFK [RPL17A]", "protein stability index": "3.2 ± 0.046"}, {"sequence": "PDILATDLIREKTMMTF [YCS4]", "protein stability index": "2.28 ± 0.078"}, {"sequence": "PDLDTECFISMQSTSPA [SWI1]", "protein stability index": "2.68 ± 0.18"}, {"sequence": "PDMYERKVENIRTILVN [MED7]", "protein stability index": "1.32 ± 0.045"}, {"sequence": "PDNSIFGDTKSESKQLG [SWI3]", "protein stability index": "3.54 ± 0.14"}, {"sequence": "PDPRSTVIPEDEEIIQL [RPO21]", "protein stability index": "2.65 ± 0.081"}, {"sequence": "PDYYVSILSFVDKELLE [RPT2]", "protein stability index": "2.6 ± 0.054"}, {"sequence": "PEETPLEELAETFQDTF [FAS2]", "protein stability index": "3.11 ± 0.056"}, {"sequence": "PEFAGYSKAAEPHAVSL [ASC1]", "protein stability index": "2.51 ± 0.073"}, {"sequence": "PEGRLYQVEYAFKATNQ [SCL1]", "protein stability index": "2.65 ± 0.086"}, {"sequence": "PEKEASSATIVLCLTRS [YCG1]", "protein stability index": "2.03 ± 0.06"}, {"sequence": "PETCLFVSYFGKQIKST [YML103C/NUP188]", "protein stability index": "2.61 ± 0.051"}, {"sequence": "PFMLQWGIPLIKELRSK [FAS1]", "protein stability index": "1.69 ± 0.069"}, {"sequence": "PFTDRSVVRGNTFKVLS [COB]", "protein stability index": "2.25 ± 0.082"}, {"sequence": "PGFDEFQLIDMKDKEIN [CSI1]", "protein stability index": "3.34 ± 0.14"}, {"sequence": "PGNGKHASENISLSFSR [SIR4]", "protein stability index": "2.49 ± 0.081"}, {"sequence": "PGPRLLYENIASSPIIL [RPN10]", "protein stability index": "2.1 ± 0.03"}, {"sequence": "PGRLDRKIEFPSLRDRR [RPT3]", "protein stability index": "3.35 ± 0.044"}, {"sequence": "PGTITHGMFSSASVRAL [FAS1]", "protein stability index": "2.53 ± 0.063"}, {"sequence": "PGTTSTGNNNNIATQQN [GAL11]", "protein stability index": "2.03 ± 0.052"}, {"sequence": "PHELTESVLPAARYDYA [QCR2]", "protein stability index": "2.22 ± 0.061"}, {"sequence": "PHHNQSPRNTYQCAMGK [RET1]", "protein stability index": "2.68 ± 0.17"}, {"sequence": "PHLFVNGDLTVSLCAKN [SSN2]", "protein stability index": "1.95 ± 0.079"}, {"sequence": "PHQSPDATRVFVNGVWH [RPB2]", "protein stability index": "2.84 ± 0.061"}, {"sequence": "PHTPVTRKGYIPSSKYA [YLR018C/POM34]", "protein stability index": "3.15 ± 0.065"}, {"sequence": "PIAASTDLPIETAAMAS [RPN1]", "protein stability index": "1.48 ± 0.041"}, {"sequence": "PIDAGLNEAPFPEENII [MCD1]", "protein stability index": "3.01 ± 0.069"}, {"sequence": "PIDNNIIFASTKLGFTF [SNU114]", "protein stability index": "2.63 ± 0.05"}, {"sequence": "PIFSFGKQEENGDEGDD [YOR098C/NUP1]", "protein stability index": "3.63 ± 0.14"}, {"sequence": "PIIATYGNRAEQFLETD [SRP68]", "protein stability index": "2.09 ± 0.09"}, {"sequence": "PINLQNGEEDEVALFSQ [YLR335W/NUP2]", "protein stability index": "3.11 ± 0.14"}, {"sequence": "PIPIPAFADRLGQYVQA [PRE10]", "protein stability index": "2.21 ± 0.08"}, {"sequence": "PIPSSETKADGILLETI [RRP6]", "protein stability index": "2.86 ± 0.1"}, {"sequence": "PISKHSKQAIYTRAAAS [RPS25B]", "protein stability index": "2.64 ± 0.067"}, {"sequence": "PIVIIFRALGIIPDGEI [RPB2]", "protein stability index": "1.92 ± 0.048"}, {"sequence": "PKAMTDTDNECVAAWGV [HRT1]", "protein stability index": "3.23 ± 0.12"}, {"sequence": "PKSSPLKKNNYNSFPHS [SIR4]", "protein stability index": "2.79 ± 0.099"}, {"sequence": "PKYAKQKDKSDTYKRFK [ISW2]", "protein stability index": "3.12 ± 0.084"}, {"sequence": "PKYRDNLATWYHSAGGR [SSN3]", "protein stability index": "2.95 ± 0.066"}, {"sequence": "PLASEESLTNSNMFDNS [YGL100W/SEH1]", "protein stability index": "3.38 ± 0.18"}, {"sequence": "PLIQNSMRTIMKANPAL [PRP8]", "protein stability index": "2.4 ± 0.08"}, {"sequence": "PLKYAPHLPFSKSENPV [SWI3]", "protein stability index": "2.81 ± 0.076"}, {"sequence": "PLPHRVQKSTKTFSYKR [RPL20A]", "protein stability index": "2.39 ± 0.058"}, {"sequence": "PLPVETPRDRRKSVFAP [SSN2]", "protein stability index": "2.67 ± 0.069"}, {"sequence": "PLQNNLPELWALLNFVL [SNF2]", "protein stability index": "2.69 ± 0.051"}, {"sequence": "PLQVARCTKIIKGNGES [RPT1]", "protein stability index": "2.96 ± 0.16"}, {"sequence": "PLRLRLYDNFVSKFYDK [RPN9]", "protein stability index": "3.17 ± 0.068"}, {"sequence": "PLSNEVFEISENNSDSN [SWI1]", "protein stability index": "3 ± 0.063"}, {"sequence": "PMPIITFLSEWGMEPLE [RPB2]", "protein stability index": "2.7 ± 0.06"}, {"sequence": "PMYKELWINYIKELLNI [POP4]", "protein stability index": "1.67 ± 0.19"}, {"sequence": "PNADDIRDSIPQMDSFD [DIS3]", "protein stability index": "2.79 ± 0.078"}, {"sequence": "PNHIPSVNPSNKPIKRM [SWP82]", "protein stability index": "2.87 ± 0.087"}, {"sequence": "PNIRELGVKNLGLCCLL [YCG1]", "protein stability index": "2.91 ± 0.25"}, {"sequence": "PNIRTMSGTTKRLNGKR [SSN2]", "protein stability index": "2.24 ± 0.23"}, {"sequence": "PNLLFSMCGFEVRILPR [PRP8]", "protein stability index": "2.41 ± 0.051"}, {"sequence": "PNVFDKDSYVRIANIEQ [YDL088C/ASM4]", "protein stability index": "3 ± 0.093"}, {"sequence": "PPETKLPYPTYWSDKKA [SNF5]", "protein stability index": "2.91 ± 0.085"}, {"sequence": "PPKHTELLLTTLSVSHG [SSN2]", "protein stability index": "1.79 ± 0.038"}, {"sequence": "PPPGLDELETKAEKKVE [PRP8]", "protein stability index": "3.02 ± 0.06"}, {"sequence": "PPQLANQQQPPQDILSK [SNF11]", "protein stability index": "2.26 ± 0.055"}, {"sequence": "PPSVTLQDWQREDEFGS [YDL088C/ASM4]", "protein stability index": "3.1 ± 0.11"}, {"sequence": "PQAILAKNSIIDSSNLP [SWI1]", "protein stability index": "2.02 ± 0.061"}, {"sequence": "PQGRQSTTFADCPVVPA [RPC40]", "protein stability index": "2.89 ± 0.067"}, {"sequence": "PQGSTTNGGLFGSGTQN [YGR119C/NUP57]", "protein stability index": "3.12 ± 0.073"}, {"sequence": "PQRLQRKRHQRALKVRN [RPS6A]", "protein stability index": "2.96 ± 0.1"}, {"sequence": "PRFNRENKVSPADAAKK [RPS26A]", "protein stability index": "3.45 ± 0.18"}, {"sequence": "PRGTAKLIIHRKNDNAN [SMC3]", "protein stability index": "1.68 ± 0.29"}, {"sequence": "PRSPGRSPTRRLELLQL [SMC4]", "protein stability index": "1.41 ± 0.27"}, {"sequence": "PRVIEPVYTAQWSATWI [PRP8]", "protein stability index": "1.8 ± 0.072"}, {"sequence": "PSENLLNIRIQTYGETT [RPC19]", "protein stability index": "1.85 ± 0.27"}, {"sequence": "PSGAKKVISSDARGVIG [RPL2A]", "protein stability index": "2.88 ± 0.072"}, {"sequence": "PSILEDSLENNEGVPSP [FAS1]", "protein stability index": "3.29 ± 0.23"}, {"sequence": "PSLLLQKDQDGRIPLHW [NAS6]", "protein stability index": "3.28 ± 0.28"}, {"sequence": "PSLRKLIESGIGTHHAG [BRR2]", "protein stability index": "3.16 ± 0.19"}]}, {"assay": "protein stability index of a GFP-peptide fusion (yeast GPS) (PSI 1-4); higher = more stable; sorted into four equal gates, so the index is relative within each strain", "details": "pdr5∆", "summary_of_the_method": "as §1", "values": [{"sequence": "NTHAVLVALKRNADELS [PRE5]", "protein stability index": "2.69 ± 0.05"}, {"sequence": "NTSAIQETASPLSQDEL [YIL149C/MLP2]", "protein stability index": "1.39 ± 0.091"}]}]}
